Measurements published in the FLAb antibody collection (doi:10.1101/2023.12.08.570889).
Residue numbers refer to the chain shown, from its start.

B1: unnamed (protein)
chain 1: QMQLVESGGGVVQPGRSLRLSCAASGFTFRTYGMHWVRQAPGKGLEWVAVIWYDGSNKHYADSVKGRFTITRDNSKNTLNLQMNSLRAEDTAVYYCARGPMALLYYRGFDYWGQGTMVTVSS
chain 2: SYVLTQPPSVSVAPGQTARITCGGNNLGSKSVHWYQQKPGQAPVLVVYDDSDRPSWIPERFSGSNSGNTATLTISRGEAGDEADYYCQVWDSSSDHVVFGGGTKLTVL
B2: unnamed (protein)
chain 1: B1 chain 1 with G99S, M101R, A102Y, L103D, L104Y, Y106W, R107E, G108A, Y111V
chain 2: B1 chain 2
B3: unnamed (protein)
chain 1: B1 chain 1 with G99S, M101R, A102Y, L103D, L104W, Y106W, R107E, G108A, Y111V
chain 2: B1 chain 2
B4: unnamed (protein)
chain 1: QMQLVESGGGVVQPGRSLRLSCAASGFTFRTYGMHWVRQAPGKGLEWVAVIWYDGSNKHYADSVKGRFTITRDNSKNTLNLQMNSLRAEDTAVYYCARDRFDVASGSSFDFWGQGTMVTVSS
chain 2: B1 chain 2
B5: unnamed (protein)
chain 1: B1 chain 1 with G99A, M101R, A102Y, L103D, L104Y, Y106L, R107E, G108A, Y111V
chain 2: B1 chain 2
B6: unnamed (protein)
chain 1: B1 chain 1 with A97T, G99D, P100G, M101G, A102L, L104F, Y105A, R107Y, G108A, F109M
chain 2: B1 chain 2
B7: unnamed (protein)
chain 1: B1 chain 1 with G99A, M101R, A102Y, L103D, L104D, Y105R, Y106W, R107E, G108A, Y111V
chain 2: B1 chain 2
B8: unnamed (protein)
chain 1: B1 chain 1 with G99A, M101R, A102Y, L103D, L104T, R107E, G108A, Y111V
chain 2: B1 chain 2
B9: unnamed (protein)
chain 1: QMQLVESGGGVVQPGRSLRLSCAASGFTFRTYGMHWVRQAPGKGLEWVAVIWYDGSNKHYADSVKGRFTITRDNSKNTLNLQMNSLRAEDTAVYYCNAAIRTTVRTSAQEYWGQGTMVTVSS
chain 2: B1 chain 2
B10: unnamed (protein)
chain 1: B1 chain 1 with G99S, M101R, A102Y, L103Y, L104W, R107E, G108A, Y111V
chain 2: B1 chain 2

The binders below were run against TSLP, Q969D9 (assay: Kd (SPR)).

Compared with B1, B2 is 1.6-fold higher in Kd: 183 nM for the first, 290 nM for the second. The first binds more tightly here.

Going from B3 to B4, the Kd falls from 240 nM to 126 nM (1.9-fold).

Compared with B5, B6 is 2.2-fold lower in Kd: 238 nM for the first, 110 nM for the second.

First: B7
Second: B8
The Kd of the first is 2.3-fold higher: 193 nM for the first, 83.9 nM for the second.

B9 and B10 are within 1.5-fold of each other in Kd: 103 nM for the first, 81.9 nM for the second.
